Data on 33 sequences can be found in the NTF2 design screens of Basanta et al. (2020).

The data set is described as follows: protease stability score; higher = more stable; yeast display proteolysis, trypsin and chymotrypsin.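 Note: log10 excess protease needed over predicted unfolded state with 0 meaning unfolded.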
“DEDKMKSILTVAQEGDPDEMKRQADEDARVHIGDKRVHGRESFQKAMDEYTKAVDSQHVKRVSSRENRVKVTAVLRFNGSHIDVVVQIRAHNGRIEEIIFRVTDPKQKTTLKKIIS”: the protease stability score was 0.053.
The result for “DEDDQRRKAETLVRQISTGNPDDLKKMVDPNVKVKVGDKEYHGREEMAKDIKHIEDAVDHLEVKSVDAHNGRIDIVIVMHINGTRVHMRVEFQLNNGKVKSAERRYTDQDQKNTFER” reads -0.39; that for “DEEEDKKVKHLITNIREGNSDDFIKMMDPNARLVYGDQRVKGTSQAREFVHSLHEQARIDLEVKHITAHNGRIDVTVKMELEVNGQPYRFSVNVIVHIRNGKVQEVVFQFDPRDEQRNRK”, 1.24.
The same measure for “DEELLELFERWVDAVHNNDKEQLKRLMDPNVKFQIGDKRWEGREKLVKDIADEQRQIRVRYRVDTMDATNGRADVHAKVEIEVNGKPISFRVRVFMEVHNGKVKSIVWNIPEDDMKKLQK”: 1.63.
The result for “DEHTERTLSRLVKRNDEKTMADRADENARAEYGDTTYHGKEEFKKWVNKMEERVDHRDLKEIRVHGNKIKVKMDQEVNGRRVEMEFEAHYHNGRLKFEVMKVRDEEQKEQLKQQQT” reads -0.09.
“DEHAQKRASQLVDKQNTGNPESIANYMDPNAKVQVGENRVHGREEIETLVKQKNKEARYEYNVESMSIQGDKLTMHLHAVVEINGQPLEFKVRVDFTFHNGRIRDVYYQLPEELLEELKR” displayed a protease stability score of 0.165.
The same measure for “DREVLKEFLKQFHEGNFHEVARMADPNAEVEVGDKTVEGREHLITLHKHIHDKADHASIHRVEIHNGRINVELTVNFNGTNVVYRFTLEAENGKLKNINYRARDSDQKRILKRLWG”: 0.091; for “DTQALKHARSVLEDNDWDKLQKLADKDARATVGDTTYHGREDIQTWLKRAEETVDHVNIKSISIDEDSISVRFVMNVNGKTVEMVITIQLHNGRIKFLRIQARSEEQEKTIHEVVD”: -0.051.
The same measure for “DEHARHLVSELLRALESGDPDQLVKMADPNVEAQIGDKRYTGRSHMKKMQEDLKREMRYHVTDFHVEVNGNTAVADVDASVEHNGQPRRHRYRIVITFENGRAKDFSIQRDK”: 1.12; for “DENKENEQFLRNYSKQLKDGNEEQLKRNFDPDAKVRYGDKDVSGREQIQKRIADEARKVDHYEITVKRVEKRGDHVRVEFDVRRHVNGKEESMDVVVIFVKHNGRMVISTVTID”: 0.036; for “DEEEVKQAIDRWEQGDPDQLKELVDENAHMVIGDKRLHGRETFEKMIKNLMDQADHITIESVEVQGDKAVMDVVANFNGKTVRYEVEIRIQNGQIKYLQINVTNEHDEHRFDQWLG”: 1.16.
The result for “DDREVVDRALKELRSILHEGDEEQMHRNFPPEASVKYGDTEYTGMESAAHLIIELRKRVDHMEQRVTTVNVRNGTVDVDMSADVRHNGREDSIKVKLILRISNGRAQLEQVINP” reads 1.18.
For “DDDEARKALQWFSTGDPDKLKKNVDENAKVQIGDKEYQGRDQAATALVKLQKRVDHVEIKHVSIDGDDVVVDLVLNVDGHEVRFTNEFRVENGKFQDVHINVTNEEDEKILKRVLG”, the protease stability score was 0.932.
The same measure for “DESELEQLKRDWEHNDFDQLVRNMDKDVRLRIGNKQWHGHEQVQNFNRKMQEQIDHQHIRHIETRGNKIRVTYEIDINGQTMVVNAEAYIDNGRLKSMHVKFTSEEHRKVFEKAVD”: 0.746.
Take “DTRDDERFKEFLKQIETNDPDKLVRMFDPNARIKVGDNELRGREQIHTFWKHVLDEQRVEYTDVKADFNGDKIEVDIRMVNQTNGEPEESRNKVEVKWHNGRLIDVIFRSDG”: the protease stability score was determined as 0.113.
The result for “DEEDQKNFAEQANRALHHGDPRQMATLADKDAEVTVGDREYKGRRDINEAMKDWSDQVDSIEVKSVTVQGNNIVVHFVFVHNGHEHKVVMRITMEGDKATSIHLDEK” reads 0.336.
The result for “DSDAARILVEFWTALQKGDHDRLKQNMDPNAKMKIGDHTLHGREQIAEHATKLKREMRIDIRLKSFDDDGDHAILKFEMRVDVNGKPFSMDVTVNVKAHNGHLVKVNFRIPEKDLQRLNS” reads 0.633; that for “DKDAQKKATEFLTAWEQGNESQLQKLMDPNAKVEIGDKVIDGREDWNRWIRERLKRMRFEIKSVDVQVHGDNVDINIDARVNHNGKPDRMTAKFVMRVHNGRIKSMTQHNDK”, 1.29; that for “DEDDMRKWEELMRAFETGDEKKATELVDPNATFKVGDKTYHGREHFIKDLFTKVKEIHIQMRIRDIQQSGDFAVVHLVKSNHNNGKPNSDVAVVLVRMDNGKLKYVQETKDQ”, 0.587.
“EEEQITKLEEVLKDVETGDPNKLIDNFDPNVRYDYGDKKYHGMTNWAKDVVSKAKEQHVTRHVTDVKVQGNHASMTADVNNDHNGRPHKQKQDIQFTFHNGKIKNVHVQETK”: the protease stability score is -0.667.
The result for “KEEDVEKVAKRLITLVQEGNVDVMRKYLAPDVEVQYGDVEVKGPDQVVKHVRDLRRQGYRVQLKEVQVEGNTAETVLDYQAGDQKYTATVKAQVKGGVLKRATVKASPEMKKVVKAG” reads 1.38.
The result for “DEDDVQHAQKLVEENDEDKLKRMFPPDARAHIGDKEVHGMDKWADILKTLHHKADSVHFKHVSVSGNSVNVNFVMVVDGQSIEFVLVIDVHNGRARRLRIDFRNEEQQKLFEKLIS” reads 1.3; that for “DQRTREKVAEDIDNNDPQKLQDQADENVRVEYGNKVVHGREQMQEWARSLKDDVDSLEVDHVELDGDKIDARVNFNVNGRRVVFTIEADAHNGTIQRLRMTVTSEEQDTHMKQAAN”, -0.209.
The result for “DEEKLEKFARNFEKVVERGDEDKFRSQADPNVQAVIGDKRIHGDEHLAHWMNKLRSHIDHFRVVDMRVQGEEIHLDVKFVVDGRRVRFIIEIEVHNGHITRFTVHVTDEEKWRRREK” reads 0.335; that for “EDDRQRKFAKHANKVMETGDPREMEKLADENVRVVVGEKDVHGRERAQEWAKELSDRVDQIRIKDVDVDGNKVVIDLIVDHNGRQSTVTVDIEFHNGRAKSVTMHEK”, -0.244; that for “DEKALQLLQRIMEAWQKGDPQQVVDNIDKDARIHIGDKHLHGREDARRVVEQEMTEARLSFDVKHVSVQGDKVKVSFHAQLDTNGRPKTYRASATMNASNGKAKQMDVKEDK”, -0.232.
As to “DEETLHDVLRHLKHGDPDTIDRMADENAKAVIGNQEIHGREEISKIAKDLERKVDHQEVHKVEIDGDKATVTYRQNVNGRTVYMYVIVQNHDGHIKYVVIKARDEDEMRKWEENLS”, the protease stability score came to 0.742.
“DDEDAKRWEKFLKLQQEGNDSEMRKLVDENASFDVGNKHYSGMTTMAHELVRHAHDIRLEYKDVKIDVSGEQIYVTMEVTVNINGQPVRYTNVLEVTMHNGKVKTATNRIPEDVEREIRQ”: the protease stability score was found to be 0.034.
On to “DEEKVKKLLEQMVRAYVSGHAEEVKKLGKDDGELHAGDQTYHGKEQIYKVVKKFKEYGVQLQITDMKYDGDRLDVKAELHHGGTTWEFRVTVQADGGKVDRLQVDVSEEAKKTIKHG”, for which the protease stability score worked out at 1.
The same measure for “DDDHLRKVEDFMRAQLEGDPDRLKQLADPNVRMNVGEKKVHGMQDIATEQASTYKTARYEIKSLDSKTEGDKVVITMRVQADNNGQPHDETFHLKARLENGKIVEQSKENDG”: -0.529.
The same measure for “DEKRVKEMVKKIFEVIKKGDEDKIVKQLMPNVEYHYIDQKFEGEDAARHIVKIVKHIGAEDREKKHEVNGDTMTVVFVYHNGDKTIQTKATVTYEGDVVKKAEVRLDDEVKKLARKG”: 0.088; for “DEDTESNFRQFIRAWKSGNPNELRRLAPPDAHLKVGDKEWHGMEKAVTYLEREVKESTFDIKRWDVKVDGNSVTAHVKMVVHDNGQPNNYKVEMNANFHNGQIESYNVETRK”: 0.267.
The result for “DEKEQEVLDRFMRALRTGNPDDADKNVDKDVNVRYGDRTIKGRESFHEEIRREHQEIRLDYRSVNNQVHNGQANVDVDAIWNVNGRPHRVKVHIRAQIHDGRIKHQRFRMDPEEKKRVDS” reads 0.054.
